In assay [1] the target is CEACAM5 on transfected CHO cells (human) (UniProt P06731). Put plainly: flow cytometry; CHO transfectant 'CEACAM5' with HopQ as in Fig. 6 b; number in the panel = median; untransfected CHO with HopQ: 6 [cont.) c]. In general terms: A flow cytometer gives signals particle by particle.
Assay [2] addresses CEACAM4 on transfected CHO cells (human) (UniProt O75871). The assay is described as follows: flow cytometry; CHO transfectant 'CEACAM4' with HopQ as in Fig. 6 b; number in the panel = median; untransfected CHO with HopQ: 6 [cont.) c].
The target in assay [3] is CEACAM8 on transfected CHO cells (human) (UniProt P31997). The assay is described as follows: flow cytometry; CHO transfectant 'CEACAM8' with HopQ as in Fig. 6 b; number in the panel = median; untransfected CHO with HopQ: 6 [cont.) c].
Assay [4] concerns the target CEACAM3 on transfected CHO cells (human) (UniProt P40198). Put plainly: flow cytometry; CHO transfectant 'CEACAM3' with HopQ as in Fig. 6 b; number in the panel = median; untransfected CHO with HopQ: 6 [cont.) c].
Assay [5] addresses human CEACAM1 (hu-CEACAM1-4L) on stably transfected CHO cells (human) (UniProt P13688). The assay is described as follows: flow cytometry; CHO-CEACAM1 cells with myc-His-tagged HopQ, anti c-myc mAb, FITC goat anti-mouse F(ab')2; thin line: control IgG; number in the panel = median.
Assay [6] addresses CEACAMs endogenously expressed on MKN45 gastric cancer cells (CEACAM1, CEACAM5 and CEACAM6). Put plainly: flow cytometry; MKN45 cells with myc-His-tagged HopQ, anti c-myc mAb, FITC goat anti-mouse F(ab')2; thin line: control IgG; number in the panel = median.
In assay [7] the target is CEACAM7 on transfected CHO cells (human) (UniProt Q14002). The assay is described as follows: flow cytometry; CHO transfectant 'CEACAM7' with HopQ as in Fig. 6 b; number in the panel = median; untransfected CHO with HopQ: 6 [cont.) c].
The target of assay [8] is CEACAM6 on transfected CHO cells (human) (UniProt P40199). Put plainly: flow cytometry; CHO transfectant 'CEACAM6' with HopQ as in Fig. 6 b; number in the panel = median; untransfected CHO with HopQ: 6 [cont.) c].
In assay [9] the target is human CEACAM1 (hu-CEACAM1-4L) on stably transfected CHO cells (human) (UniProt P13688). The assay is described as follows: flow cytometry; CHO transfectant 'CEACAM1' with HopQ as in Fig. 6 b; number in the panel = median; untransfected CHO with HopQ: 6 [cont.) c].
Assay [10] concerns the target CEACAMs endogenously expressed on AGS gastric cancer cells (CEACAM1, CEACAM5 and CEACAM6). The assay is described as follows: flow cytometry; AGS cells with myc-His-tagged HopQ, anti c-myc mAb, FITC goat anti-mouse F(ab')2; thin line: control IgG; number in the panel = median.
Assay [11] shares this target. Put plainly: cell-based or functional assay.
Assay [12] concerns the target human CEACAM1-Fc (extracellular domains N-A1-B1-A2 fused to a human heavy chain Fc-domain) (human) (UniProt P13688).
Assay [13] deals with T1, human CEACAM1-Fc (extracellular domains N-A1-B1-A2 fused to a human heavy chain Fc-domain) (human, UniProt P13688 35-428).
T1 construct: extracellular domain; Made in HEK293 cells; also called hu-CEACAM1-Fc; not shown: human heavy chain Fc-domain
T1 sequence: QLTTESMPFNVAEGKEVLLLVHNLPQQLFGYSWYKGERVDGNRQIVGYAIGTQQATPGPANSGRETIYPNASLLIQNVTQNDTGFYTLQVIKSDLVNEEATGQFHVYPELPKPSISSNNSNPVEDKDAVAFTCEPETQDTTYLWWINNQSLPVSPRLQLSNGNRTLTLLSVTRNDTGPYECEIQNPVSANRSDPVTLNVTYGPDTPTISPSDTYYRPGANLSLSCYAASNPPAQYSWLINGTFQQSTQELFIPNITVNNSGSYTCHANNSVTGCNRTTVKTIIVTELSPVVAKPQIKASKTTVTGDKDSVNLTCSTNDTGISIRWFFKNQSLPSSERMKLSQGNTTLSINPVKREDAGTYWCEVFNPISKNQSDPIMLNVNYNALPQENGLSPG
Put plainly: pull-down of live bacteria with CEACAM-Fc; western blot and flow cytometry with α-hu-IgG-FITC [cont.) c]. In general terms: In western blotting, separated proteins are transferred to a membrane and probed.

Assay [14] has as its target T2, human CEACAM6-Fc (extracellular domains N-A-B fused to a human heavy chain Fc-domain) (human, UniProt P40199 35-320).
T2 construct: extracellular domain; Made in HEK293 cells; also called hu-CEACAM6-Fc; not shown: human heavy chain Fc-domain
T2 sequence: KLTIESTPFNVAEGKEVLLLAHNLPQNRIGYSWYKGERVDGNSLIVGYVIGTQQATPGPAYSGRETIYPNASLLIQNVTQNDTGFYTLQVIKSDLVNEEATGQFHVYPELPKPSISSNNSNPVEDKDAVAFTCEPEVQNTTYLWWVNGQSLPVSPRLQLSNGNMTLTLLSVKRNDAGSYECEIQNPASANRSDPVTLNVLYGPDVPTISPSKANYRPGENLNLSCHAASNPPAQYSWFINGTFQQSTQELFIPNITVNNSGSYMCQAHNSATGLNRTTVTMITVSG
The assay is described as above.

Assay [15] has as its target T3, recombinant human CEACAM5-Fc (Sino Biological Inc.) (human, UniProt P06731 35-685).
T3 construct: also called hu-CEACAM5-Fc; not shown: Fc part of the bought fusion; not described
T3 sequence: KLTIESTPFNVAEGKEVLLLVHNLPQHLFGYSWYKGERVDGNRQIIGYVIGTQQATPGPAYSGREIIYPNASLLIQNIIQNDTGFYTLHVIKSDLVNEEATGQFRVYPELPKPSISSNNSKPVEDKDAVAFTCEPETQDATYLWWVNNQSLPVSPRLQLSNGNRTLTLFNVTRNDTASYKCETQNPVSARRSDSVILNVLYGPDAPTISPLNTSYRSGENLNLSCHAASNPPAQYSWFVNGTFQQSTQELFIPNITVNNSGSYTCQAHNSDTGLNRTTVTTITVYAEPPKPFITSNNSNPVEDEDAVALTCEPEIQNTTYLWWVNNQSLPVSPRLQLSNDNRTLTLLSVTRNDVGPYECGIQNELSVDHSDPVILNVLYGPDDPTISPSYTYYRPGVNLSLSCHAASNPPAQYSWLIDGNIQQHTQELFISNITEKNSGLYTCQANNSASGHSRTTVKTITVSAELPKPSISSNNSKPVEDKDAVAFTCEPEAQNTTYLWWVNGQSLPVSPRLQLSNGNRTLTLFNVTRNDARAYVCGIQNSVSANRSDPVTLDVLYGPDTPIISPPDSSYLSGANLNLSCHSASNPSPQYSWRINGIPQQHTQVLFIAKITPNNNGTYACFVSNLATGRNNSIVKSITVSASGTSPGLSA
The description is as above.

Chain of CEACAM4 on transfected CHO cells (human) (O75871 36-244): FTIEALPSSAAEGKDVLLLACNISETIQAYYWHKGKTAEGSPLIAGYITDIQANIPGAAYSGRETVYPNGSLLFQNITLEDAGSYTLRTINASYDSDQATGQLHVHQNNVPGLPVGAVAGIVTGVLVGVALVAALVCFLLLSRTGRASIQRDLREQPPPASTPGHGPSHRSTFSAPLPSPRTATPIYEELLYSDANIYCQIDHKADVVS
Chain of CEACAM8 on transfected CHO cells (human) (P31997 35-320): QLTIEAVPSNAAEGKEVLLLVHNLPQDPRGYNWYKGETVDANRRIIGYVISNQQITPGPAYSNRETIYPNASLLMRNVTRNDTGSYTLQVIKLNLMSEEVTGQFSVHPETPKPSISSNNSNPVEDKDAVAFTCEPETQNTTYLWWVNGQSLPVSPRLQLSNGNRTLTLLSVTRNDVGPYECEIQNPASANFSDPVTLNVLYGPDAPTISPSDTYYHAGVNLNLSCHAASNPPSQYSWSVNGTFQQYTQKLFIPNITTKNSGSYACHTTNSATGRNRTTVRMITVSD
Chain of CEACAM7 on transfected CHO cells (human) (Q14002 36-242): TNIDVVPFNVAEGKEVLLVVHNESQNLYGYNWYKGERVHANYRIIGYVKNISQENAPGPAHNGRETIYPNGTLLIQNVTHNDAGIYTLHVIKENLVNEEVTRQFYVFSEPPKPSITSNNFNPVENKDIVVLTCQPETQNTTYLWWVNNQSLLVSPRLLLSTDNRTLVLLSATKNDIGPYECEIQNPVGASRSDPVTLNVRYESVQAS
Chain of CEACAM3 on transfected CHO cells (human) (P40198 35-252): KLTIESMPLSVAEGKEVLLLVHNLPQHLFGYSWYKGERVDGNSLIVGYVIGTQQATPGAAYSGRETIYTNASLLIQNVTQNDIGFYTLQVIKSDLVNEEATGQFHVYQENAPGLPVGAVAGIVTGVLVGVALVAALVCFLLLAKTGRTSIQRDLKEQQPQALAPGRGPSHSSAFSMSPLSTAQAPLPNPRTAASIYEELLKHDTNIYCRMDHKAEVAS

Take “H. pylori strain P12 derived, myc and 6x His-tagged recombinant HopQ”: the median relative fluorescence (FL1-H) in assay [1] was found to be 136; in [2], 6; in [3], 6; in [4] it was 18; in assay [5] it was 18; in [6], 155. Moreover, the median relative fluorescence (FL1-H) was determined as 6 in assay [7], 12 in [8], 63 in assay [9] and 32 in [10].

Regarding “HopQ insertion domain (HopQ-ID) representing peptide (aa 190-218), HA-tagged, synthetic”, in assay [11], the P12-induced phosphorylation of CagA, concentration needed against HopQ^AD (fold higher concentration than HopQ^AD) was in the range of 10 to 20.

Outer membrane protein babA registered a Score (Sequest) in assay [12] of 8.

Turning to Outer membrane protein hopC, the Score (Sequest) in [12] came to 14.4.

Outer membrane protein hopZ displayed a Score (Sequest) in assay [12] of 31.7.

Outer membrane protein sabA gave a Score (Sequest) in [12] of 6.66.

On to Outer membrane protein sabB, for which the Score (Sequest) in [12] is 23.4.

B1: HopQ of H. pylori strain P12, on live wild-type bacteria (compared with the isogenic P12ΔhopQ mutant) (other)
chain: AEDNGVFLSVGYQIGEAVQKVKNADKVQKLSDTYEQLSRLLTNDNGTNSKTSAQAINQAVNNLNERAKTLAGGTTNSPAYQATLLALRSVLGLWNSMGYAVICGGYTKSPGENNQKNFHYTDENGNGTTINCGGSTNSNGTHSSNGTNTLKADKNVSLSIEQYEKIHESYQILSKALKQAGLAPLNSKGEKLEAHVTTSKYQQDSQTKTTTSVIDTTNDAQNLLTQAQTIVNTLKDYCPMLIAKSSSGSGGGAATNTPSWQTAGGGKNSCETFGAEFSAASDMINNAQKIVQETQQLSANQPKNITQPHNLNLNTPSSLTALAQKMLKNAQSQAEILKLANQVESDFNKLSSGHLKDYIGKCDMSAISSTNMTMQSQKNNWGNGCAGVEETLTSLKTSAADFNNQTPQINQAQNLANTLIQELGNNPFRNMGMIASSTTNNGALNGLGVQVGYKQFFGEKKRWGLRYYGFFDYNHAYIKSNFFNSASDVWTYGVGSDLLFNFINDKNTNFLGKNNQISFGLFGGIALAGTSWLNSQFVNLKTISNVYSAKVNTANFQFLFNLGLRTNLARPKKKDSHHAAQHGIELGVKIPTINTNYYSFLDTKLEYRRLYSVYLNYVFAY
On to B1, for which the binding result in [13], in assay [14] and in [15] was “binds” throughout.

The values are drawn from patent publication US20210008207A1 (TECHNISCHE UNIVERSIT T M NCHEN, published 2021).
